Measured values: paper PMC6278376, “Dynamics-Derived Insights into Complex Formation between the CXCL8 Monomer and CXCR1 N-Terminal Domain: An NMR Study” (Molecules, 2018)

How the values were obtained:
[1] = molecular target: T1, CXCL8 monomer (residues 1–66) (disulfides Cys9-Cys50 (printed) and Cys7-Cys34 (by convention), mature numbering; mature residue 1 = precursor 28 (offset +27), matching PDB 5WDZ entity 1 (66 aa); 15N-labelled for NMR); experiment: ITC; 890 μM CXCR1 N-domain peptide injected into 80 μM CXCL8 monomer; 50 mM sodium phosphate pH 6.0, 25 °C; single-binding site model; details: both partners purified
T1 sequence (chain, as listed by the source): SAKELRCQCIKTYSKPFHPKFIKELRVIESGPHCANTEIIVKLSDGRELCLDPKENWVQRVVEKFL

[2] = molecular target: T1, CXCL8 monomer (residues 1–66); experiment: NMR titration; 200 μM 15N-CXCL8 titrated with unlabeled CXCR1 peptide (2.5 mM stock, molar ratios 0 to 8.4); 2D 1H-15N HSQC; shift changes fit to a 1:1 model for KD; line shape analysis (Bloch–McConnell, two-site exchange) for koff, kon = koff/KD; 50 mM sodium phosphate pH 6.0, 30 °C; details: both partners purified

B1: CXCR1 N-domain peptide corresponding to the first 29 amino acids (29mer) (peptide, UniProt P25024 1-29, looked up)
chain: MSNITDPQMWDFDDLNFTGMPPADEDYSP
notes: CXCR1 receptor, N-terminal domain, first 29 amino acids (M1, S2 ... S28 named in the text); human by the discussion's contrast with the rabbit peptide; Recombinant peptide; 15N-labelled where it was the observed species in NMR, unlabelled otherwise; also called CXCR1 N-domain 29mer; CXCR1 N-terminal domain; source: E. coli BL21(DE3), purified
- Kd [1]: 8.4 ± 0.5 µM
- dH [1]: -10.9 ± 0.837 kJ/mol
- stoichiometry N [1]: 0.93 ± 0.03
- Kd [2]: ~5 µM
